B1: THAP1; numbered along this chain (parent)
chain: MVQSCSAYGCKNRYDKDKPVSFHKFPLTRPSLCKEWEAAVRRKNFKPTKYSSICSEHFTPDCFKRECNNKLLKENAVPTIFLCTEPHDKKEDLLEPQEQLPPPPLPPPVSQVDAAIGLLMPPLQTPVNLSVFCDHNYTVEDTMHQRKRIHQLEQQVEKLRKKLKTAQQRCRRQERQLEKLKEVVHFQKEKDDVSERGYVILPNDYFEIVEVPA

Variants of: B1
Assay: THAP1 transcriptional activity (GFP+/GFP- enrichment relative to wild-type constructs) (ratio to WT); higher = more THAP1 activity (PSMB5 reporter activation)
Conditions: with PSMB5 promoter-GFP reporter
Protocol: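 Deep mutational scan of human THAP1. Site-saturation single amino acid variant library (residues 2-213) was expressed by lentivirus at MOI ~0.3 in THAP1-knockout HEK-293T cells carrying an endogenous PSMB5 promoter-GFP knock-in reporter. Five days post-transduction, BFP+ cells were FACS-sorted into GFP dim and GFP bright populations and variants were counted by Illumina sequencing. Activity is the GFP-bright/GFP-dim read fold change, mean of 2 replicates, divided by the mean fold change of wild-type (synonymous) constructs in the same screen pool; WT = 1.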

Row | Variant | THAP1 transcriptional activity
1 | MSQSCSAYGCKNRYDKDKPVSFHKFPLTRPSLCKEWEAAVRRKNFKPTKYSSICSEHFTPDCFKRECNNKLLKENAVPTIFLCTEPHDKKEDLLEPQEQLPPPPLPPPVSQVDAAIGLLMPPLQTPVNLSVFCDHNYTVEDTMHQRKRIHQLEQQVEKLRKKLKTAQQRCRRQERQLEKLKEVVHFQKEKDDVSERGYVILPNDYFEIVEVPA [V2S] | 0.297
2 | MMQSCSAYGCKNRYDKDKPVSFHKFPLTRPSLCKEWEAAVRRKNFKPTKYSSICSEHFTPDCFKRECNNKLLKENAVPTIFLCTEPHDKKEDLLEPQEQLPPPPLPPPVSQVDAAIGLLMPPLQTPVNLSVFCDHNYTVEDTMHQRKRIHQLEQQVEKLRKKLKTAQQRCRRQERQLEKLKEVVHFQKEKDDVSERGYVILPNDYFEIVEVPA [V2M] | 0.183
3 | MDQSCSAYGCKNRYDKDKPVSFHKFPLTRPSLCKEWEAAVRRKNFKPTKYSSICSEHFTPDCFKRECNNKLLKENAVPTIFLCTEPHDKKEDLLEPQEQLPPPPLPPPVSQVDAAIGLLMPPLQTPVNLSVFCDHNYTVEDTMHQRKRIHQLEQQVEKLRKKLKTAQQRCRRQERQLEKLKEVVHFQKEKDDVSERGYVILPNDYFEIVEVPA [V2D] | 0.178
4 | MKQSCSAYGCKNRYDKDKPVSFHKFPLTRPSLCKEWEAAVRRKNFKPTKYSSICSEHFTPDCFKRECNNKLLKENAVPTIFLCTEPHDKKEDLLEPQEQLPPPPLPPPVSQVDAAIGLLMPPLQTPVNLSVFCDHNYTVEDTMHQRKRIHQLEQQVEKLRKKLKTAQQRCRRQERQLEKLKEVVHFQKEKDDVSERGYVILPNDYFEIVEVPA [V2K] | 0.0614
5 | MRQSCSAYGCKNRYDKDKPVSFHKFPLTRPSLCKEWEAAVRRKNFKPTKYSSICSEHFTPDCFKRECNNKLLKENAVPTIFLCTEPHDKKEDLLEPQEQLPPPPLPPPVSQVDAAIGLLMPPLQTPVNLSVFCDHNYTVEDTMHQRKRIHQLEQQVEKLRKKLKTAQQRCRRQERQLEKLKEVVHFQKEKDDVSERGYVILPNDYFEIVEVPA [V2R] | 0.122
6 | MFQSCSAYGCKNRYDKDKPVSFHKFPLTRPSLCKEWEAAVRRKNFKPTKYSSICSEHFTPDCFKRECNNKLLKENAVPTIFLCTEPHDKKEDLLEPQEQLPPPPLPPPVSQVDAAIGLLMPPLQTPVNLSVFCDHNYTVEDTMHQRKRIHQLEQQVEKLRKKLKTAQQRCRRQERQLEKLKEVVHFQKEKDDVSERGYVILPNDYFEIVEVPA [V2F] | 0.161
7 | MCQSCSAYGCKNRYDKDKPVSFHKFPLTRPSLCKEWEAAVRRKNFKPTKYSSICSEHFTPDCFKRECNNKLLKENAVPTIFLCTEPHDKKEDLLEPQEQLPPPPLPPPVSQVDAAIGLLMPPLQTPVNLSVFCDHNYTVEDTMHQRKRIHQLEQQVEKLRKKLKTAQQRCRRQERQLEKLKEVVHFQKEKDDVSERGYVILPNDYFEIVEVPA [V2C] | 0.162
8 | MYQSCSAYGCKNRYDKDKPVSFHKFPLTRPSLCKEWEAAVRRKNFKPTKYSSICSEHFTPDCFKRECNNKLLKENAVPTIFLCTEPHDKKEDLLEPQEQLPPPPLPPPVSQVDAAIGLLMPPLQTPVNLSVFCDHNYTVEDTMHQRKRIHQLEQQVEKLRKKLKTAQQRCRRQERQLEKLKEVVHFQKEKDDVSERGYVILPNDYFEIVEVPA [V2Y] | 0.16
9 | MNQSCSAYGCKNRYDKDKPVSFHKFPLTRPSLCKEWEAAVRRKNFKPTKYSSICSEHFTPDCFKRECNNKLLKENAVPTIFLCTEPHDKKEDLLEPQEQLPPPPLPPPVSQVDAAIGLLMPPLQTPVNLSVFCDHNYTVEDTMHQRKRIHQLEQQVEKLRKKLKTAQQRCRRQERQLEKLKEVVHFQKEKDDVSERGYVILPNDYFEIVEVPA [V2N] | 0.157
10 | MLQSCSAYGCKNRYDKDKPVSFHKFPLTRPSLCKEWEAAVRRKNFKPTKYSSICSEHFTPDCFKRECNNKLLKENAVPTIFLCTEPHDKKEDLLEPQEQLPPPPLPPPVSQVDAAIGLLMPPLQTPVNLSVFCDHNYTVEDTMHQRKRIHQLEQQVEKLRKKLKTAQQRCRRQERQLEKLKEVVHFQKEKDDVSERGYVILPNDYFEIVEVPA [V2L] | 0.214
11 | MHQSCSAYGCKNRYDKDKPVSFHKFPLTRPSLCKEWEAAVRRKNFKPTKYSSICSEHFTPDCFKRECNNKLLKENAVPTIFLCTEPHDKKEDLLEPQEQLPPPPLPPPVSQVDAAIGLLMPPLQTPVNLSVFCDHNYTVEDTMHQRKRIHQLEQQVEKLRKKLKTAQQRCRRQERQLEKLKEVVHFQKEKDDVSERGYVILPNDYFEIVEVPA [V2H] | 0.247
12 | MQQSCSAYGCKNRYDKDKPVSFHKFPLTRPSLCKEWEAAVRRKNFKPTKYSSICSEHFTPDCFKRECNNKLLKENAVPTIFLCTEPHDKKEDLLEPQEQLPPPPLPPPVSQVDAAIGLLMPPLQTPVNLSVFCDHNYTVEDTMHQRKRIHQLEQQVEKLRKKLKTAQQRCRRQERQLEKLKEVVHFQKEKDDVSERGYVILPNDYFEIVEVPA [V2Q] | 0.178
13 | MPQSCSAYGCKNRYDKDKPVSFHKFPLTRPSLCKEWEAAVRRKNFKPTKYSSICSEHFTPDCFKRECNNKLLKENAVPTIFLCTEPHDKKEDLLEPQEQLPPPPLPPPVSQVDAAIGLLMPPLQTPVNLSVFCDHNYTVEDTMHQRKRIHQLEQQVEKLRKKLKTAQQRCRRQERQLEKLKEVVHFQKEKDDVSERGYVILPNDYFEIVEVPA [V2P] | 0.71
14 | MEQSCSAYGCKNRYDKDKPVSFHKFPLTRPSLCKEWEAAVRRKNFKPTKYSSICSEHFTPDCFKRECNNKLLKENAVPTIFLCTEPHDKKEDLLEPQEQLPPPPLPPPVSQVDAAIGLLMPPLQTPVNLSVFCDHNYTVEDTMHQRKRIHQLEQQVEKLRKKLKTAQQRCRRQERQLEKLKEVVHFQKEKDDVSERGYVILPNDYFEIVEVPA [V2E] | 0.154
15 | MTQSCSAYGCKNRYDKDKPVSFHKFPLTRPSLCKEWEAAVRRKNFKPTKYSSICSEHFTPDCFKRECNNKLLKENAVPTIFLCTEPHDKKEDLLEPQEQLPPPPLPPPVSQVDAAIGLLMPPLQTPVNLSVFCDHNYTVEDTMHQRKRIHQLEQQVEKLRKKLKTAQQRCRRQERQLEKLKEVVHFQKEKDDVSERGYVILPNDYFEIVEVPA [V2T] | 0.21
16 | MWQSCSAYGCKNRYDKDKPVSFHKFPLTRPSLCKEWEAAVRRKNFKPTKYSSICSEHFTPDCFKRECNNKLLKENAVPTIFLCTEPHDKKEDLLEPQEQLPPPPLPPPVSQVDAAIGLLMPPLQTPVNLSVFCDHNYTVEDTMHQRKRIHQLEQQVEKLRKKLKTAQQRCRRQERQLEKLKEVVHFQKEKDDVSERGYVILPNDYFEIVEVPA [V2W] | 0.109
17 | MGQSCSAYGCKNRYDKDKPVSFHKFPLTRPSLCKEWEAAVRRKNFKPTKYSSICSEHFTPDCFKRECNNKLLKENAVPTIFLCTEPHDKKEDLLEPQEQLPPPPLPPPVSQVDAAIGLLMPPLQTPVNLSVFCDHNYTVEDTMHQRKRIHQLEQQVEKLRKKLKTAQQRCRRQERQLEKLKEVVHFQKEKDDVSERGYVILPNDYFEIVEVPA [V2G] | 0.0831
18 | MIQSCSAYGCKNRYDKDKPVSFHKFPLTRPSLCKEWEAAVRRKNFKPTKYSSICSEHFTPDCFKRECNNKLLKENAVPTIFLCTEPHDKKEDLLEPQEQLPPPPLPPPVSQVDAAIGLLMPPLQTPVNLSVFCDHNYTVEDTMHQRKRIHQLEQQVEKLRKKLKTAQQRCRRQERQLEKLKEVVHFQKEKDDVSERGYVILPNDYFEIVEVPA [V2I] | 0.157
19 | MVHSCSAYGCKNRYDKDKPVSFHKFPLTRPSLCKEWEAAVRRKNFKPTKYSSICSEHFTPDCFKRECNNKLLKENAVPTIFLCTEPHDKKEDLLEPQEQLPPPPLPPPVSQVDAAIGLLMPPLQTPVNLSVFCDHNYTVEDTMHQRKRIHQLEQQVEKLRKKLKTAQQRCRRQERQLEKLKEVVHFQKEKDDVSERGYVILPNDYFEIVEVPA [Q3H] | 1.01
20 | MVDSCSAYGCKNRYDKDKPVSFHKFPLTRPSLCKEWEAAVRRKNFKPTKYSSICSEHFTPDCFKRECNNKLLKENAVPTIFLCTEPHDKKEDLLEPQEQLPPPPLPPPVSQVDAAIGLLMPPLQTPVNLSVFCDHNYTVEDTMHQRKRIHQLEQQVEKLRKKLKTAQQRCRRQERQLEKLKEVVHFQKEKDDVSERGYVILPNDYFEIVEVPA [Q3D] | 0.119
21 | MVKSCSAYGCKNRYDKDKPVSFHKFPLTRPSLCKEWEAAVRRKNFKPTKYSSICSEHFTPDCFKRECNNKLLKENAVPTIFLCTEPHDKKEDLLEPQEQLPPPPLPPPVSQVDAAIGLLMPPLQTPVNLSVFCDHNYTVEDTMHQRKRIHQLEQQVEKLRKKLKTAQQRCRRQERQLEKLKEVVHFQKEKDDVSERGYVILPNDYFEIVEVPA [Q3K] | 0.266
22 | MVFSCSAYGCKNRYDKDKPVSFHKFPLTRPSLCKEWEAAVRRKNFKPTKYSSICSEHFTPDCFKRECNNKLLKENAVPTIFLCTEPHDKKEDLLEPQEQLPPPPLPPPVSQVDAAIGLLMPPLQTPVNLSVFCDHNYTVEDTMHQRKRIHQLEQQVEKLRKKLKTAQQRCRRQERQLEKLKEVVHFQKEKDDVSERGYVILPNDYFEIVEVPA [Q3F] | 0.143
23 | MVESCSAYGCKNRYDKDKPVSFHKFPLTRPSLCKEWEAAVRRKNFKPTKYSSICSEHFTPDCFKRECNNKLLKENAVPTIFLCTEPHDKKEDLLEPQEQLPPPPLPPPVSQVDAAIGLLMPPLQTPVNLSVFCDHNYTVEDTMHQRKRIHQLEQQVEKLRKKLKTAQQRCRRQERQLEKLKEVVHFQKEKDDVSERGYVILPNDYFEIVEVPA [Q3E] | 0.155
24 | MVISCSAYGCKNRYDKDKPVSFHKFPLTRPSLCKEWEAAVRRKNFKPTKYSSICSEHFTPDCFKRECNNKLLKENAVPTIFLCTEPHDKKEDLLEPQEQLPPPPLPPPVSQVDAAIGLLMPPLQTPVNLSVFCDHNYTVEDTMHQRKRIHQLEQQVEKLRKKLKTAQQRCRRQERQLEKLKEVVHFQKEKDDVSERGYVILPNDYFEIVEVPA [Q3I] | 0.678
25 | MVGSCSAYGCKNRYDKDKPVSFHKFPLTRPSLCKEWEAAVRRKNFKPTKYSSICSEHFTPDCFKRECNNKLLKENAVPTIFLCTEPHDKKEDLLEPQEQLPPPPLPPPVSQVDAAIGLLMPPLQTPVNLSVFCDHNYTVEDTMHQRKRIHQLEQQVEKLRKKLKTAQQRCRRQERQLEKLKEVVHFQKEKDDVSERGYVILPNDYFEIVEVPA [Q3G] | 0.159
26 | MVASCSAYGCKNRYDKDKPVSFHKFPLTRPSLCKEWEAAVRRKNFKPTKYSSICSEHFTPDCFKRECNNKLLKENAVPTIFLCTEPHDKKEDLLEPQEQLPPPPLPPPVSQVDAAIGLLMPPLQTPVNLSVFCDHNYTVEDTMHQRKRIHQLEQQVEKLRKKLKTAQQRCRRQERQLEKLKEVVHFQKEKDDVSERGYVILPNDYFEIVEVPA [Q3A] | 0.849
27 | MVCSCSAYGCKNRYDKDKPVSFHKFPLTRPSLCKEWEAAVRRKNFKPTKYSSICSEHFTPDCFKRECNNKLLKENAVPTIFLCTEPHDKKEDLLEPQEQLPPPPLPPPVSQVDAAIGLLMPPLQTPVNLSVFCDHNYTVEDTMHQRKRIHQLEQQVEKLRKKLKTAQQRCRRQERQLEKLKEVVHFQKEKDDVSERGYVILPNDYFEIVEVPA [Q3C] | 0.269
28 | MVLSCSAYGCKNRYDKDKPVSFHKFPLTRPSLCKEWEAAVRRKNFKPTKYSSICSEHFTPDCFKRECNNKLLKENAVPTIFLCTEPHDKKEDLLEPQEQLPPPPLPPPVSQVDAAIGLLMPPLQTPVNLSVFCDHNYTVEDTMHQRKRIHQLEQQVEKLRKKLKTAQQRCRRQERQLEKLKEVVHFQKEKDDVSERGYVILPNDYFEIVEVPA [Q3L] | 0.354

Source: the supplement of paper PMC11811203
